# Reference: patent US20180164324A1 (INSERM INSTITUT NATIONAL DE LA SANT ET DE LA RECHERCHE M …, published 2018)
# Substitutions are numbered along the chain they refer to. Names may count otherwise.
# T1: Rho-binding domain of Rhotekin (RBD)-GFP11
# T1 construct: also called RBD-11
# T1 chain: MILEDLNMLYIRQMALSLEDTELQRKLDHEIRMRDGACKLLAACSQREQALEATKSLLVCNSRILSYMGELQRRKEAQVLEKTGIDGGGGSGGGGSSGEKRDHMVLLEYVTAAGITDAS
# B1: GFP10-RhoB Q63L (constitutively active, dominant positive variant) (other)
# chain: MGDLPDDHYLSTQTILSKDLNIDGGGGSGGGGSSGAAIRKKLVVVGDGACGKTCLLIVFSKDEFPEVYVPTVFENYVADIEVDGKQVELALWDTAGLEDYDRLRPLSYPDTDVILMCFSVDSPDSLENIPEKWVPEVKHFCPNVPIILVANKKDLRSDEHVRTELARMKQEPVRTDDGRAMAVRIQAYDYLECSAKTKEGVREVFETATRAALQKRYGSQNGCINCCKVL
# notes: also called GFP10-Rho active mutant (Q63L)
# B2: GFP10-RhoB T19N (dominant negative variant) (other)
# chain: B1 chain with T53N, L97Q
# B3: Myc-VHH anti-GFP nanobody (VHH)
# VHH: QVQLVESGGALVQPGGSLRLSCAASGFPVNRYSMRWYRQAPGKEREWVAGMSSAGDRSSYEDSVKGRFTISRDDARNTVYLQMNSLKPEDTAVYYCNVNVGFEYWGQGTQVTVSS
# Columns and labels:
# [1] = molecular target: GFP10-RhoB (wild-type RhoB fused to GFP10); test: cell-based or functional assay
# [2] = molecular target: Ras binding domain of c-Raf (RsBD)-GFP11; test: tripartite split-GFP complementation in GFP1-9 cells, flow cytometry
# [3] = molecular target: T1, Rho-binding domain of Rhotekin …; test: as above
# [4] = molecular target: T1, Rho-binding domain of Rhotekin …; test: tripartite split-GFP complementation in GFP1-9 cells, fluorescence microscopy
# [5] = molecular target: reconstituted split-GFP (positive cells: 10-R-11, 10-Zipper-11, 10-zipper/zipper-11 with GFP1-9); test: cell-based or functional assay
molecule,measurement,setting,value
cell-permeant recombinant TAT-C3 exoenzyme (from UniProt P15879 41-251),inhibition of RhoB activation (split-GFP fluorescence),[1],> 10 µg/mL
"GFP10-H-Ras G12V (dominant positive, GTP-bound variant)",induction ratio of split-GFP fluorescence against GDP-bound (S17N) H-Ras,[2],3 fold
B1,fold induction of split-GFP fluorescence against the inactive variant (T19N),[3],5 fold
B2,binding result,[4],no binding
B3,mean fluorescence intensity of the positive cells,[5],4 fold
